From patent US20210363245A1
Where two headings read alike, the source gives them in different places. Blank lines part the entries; values can stand above or below the substance they belong to.

Assays:
Assay in all cases: cell-based or functional assay
CD19 [1] = target: CD19 (UniProt P15391)
CD20 (human) [2] = target: CD20 (human) (UniProt P11836)
CD19 [3] = target: CD19 (UniProt P15391); remark: listed apart in the source
CD20 (human) [4] = target: CD20 (human) (UniProt P11836); remark: listed apart in the source
CD19 [5] = target: CD19 (UniProt P15391); remark: listed apart in the source
CD20 (human) [6] = target: CD20 (human) (UniProt P11836); remark: listed apart in the source
CD19 [7] = target: CD19 (UniProt P15391); remark: listed apart in the source
CD20 (human) [8] = target: CD20 (human) (UniProt P11836); remark: listed apart in the source

UniProt P11836, sequence (P11836 whole entry): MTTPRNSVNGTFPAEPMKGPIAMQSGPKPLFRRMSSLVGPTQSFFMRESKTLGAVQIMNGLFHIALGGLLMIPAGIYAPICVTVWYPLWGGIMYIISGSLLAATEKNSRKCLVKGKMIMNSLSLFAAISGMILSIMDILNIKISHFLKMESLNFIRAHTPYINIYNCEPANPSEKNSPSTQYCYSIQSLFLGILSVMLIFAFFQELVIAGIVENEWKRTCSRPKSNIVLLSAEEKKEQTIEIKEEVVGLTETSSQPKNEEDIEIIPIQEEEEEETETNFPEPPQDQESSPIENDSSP
UniProt P15391, sequence (P15391 20-556 limits assumed): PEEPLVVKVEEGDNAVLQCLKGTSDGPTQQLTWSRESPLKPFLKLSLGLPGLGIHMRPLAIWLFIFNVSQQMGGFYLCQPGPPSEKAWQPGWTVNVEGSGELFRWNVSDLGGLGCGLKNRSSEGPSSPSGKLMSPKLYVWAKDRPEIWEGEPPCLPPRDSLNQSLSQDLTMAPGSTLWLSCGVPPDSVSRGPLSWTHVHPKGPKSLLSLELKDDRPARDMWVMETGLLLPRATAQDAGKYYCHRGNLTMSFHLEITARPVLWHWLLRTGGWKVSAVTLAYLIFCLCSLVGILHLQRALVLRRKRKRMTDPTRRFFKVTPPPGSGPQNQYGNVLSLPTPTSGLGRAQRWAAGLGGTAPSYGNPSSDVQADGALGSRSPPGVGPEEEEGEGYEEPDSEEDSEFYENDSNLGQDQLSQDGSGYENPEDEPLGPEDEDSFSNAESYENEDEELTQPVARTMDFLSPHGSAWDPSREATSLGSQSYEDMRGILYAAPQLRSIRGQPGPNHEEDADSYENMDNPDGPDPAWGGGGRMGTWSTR

- IFNγ release (ELISA), overnight co-culture with CD19-K562 (CD19 [1]): 1050 pg/mL
- IL-2 release (ELISA), overnight co-culture with CD19-K562 (CD19 [1]): < 16 pg/mL
- IFNγ release (ELISA), overnight co-culture with CD20-K562 (CD20 (human) [2]): 56700 pg/mL
- IFNγ release (ELISA), overnight co-culture with Nalm6 (CD20 (human) [2]): 1290 pg/mL
- IFNγ release (ELISA), overnight co-culture with ST486 (CD20 (human) [2]): 14300 pg/mL
- IFNγ release (ELISA), overnight co-culture with Toledo (CD20 (human) [2]): 7770 pg/mL
- IL-2 release (ELISA), overnight co-culture with CD20-K562 (CD20 (human) [2]): 4620 pg/mL
- IL-2 release (ELISA), overnight co-culture with Nalm6 (CD20 (human) [2]): < 16 pg/mL
- IL-2 release (ELISA), overnight co-culture with ST486 (CD20 (human) [2]): 215 pg/mL
- IL-2 release (ELISA), overnight co-culture with Toledo (CD20 (human) [2]): 104 pg/mL
- IFNγ release (ELISA), overnight co-culture with CD19-K562 (CD19 [3]): 55 pg/mL
- IFNγ release (ELISA), overnight co-culture with CD20-K562 (CD20 (human) [4]): 36500 pg/mL
- IFNγ release (ELISA), overnight co-culture with Nalm6 (CD20 (human) [4]): 800 pg/mL
- IFNγ release (ELISA), overnight co-culture with ST486 (CD20 (human) [4]): 9070 pg/mL
- IFNγ release (ELISA), overnight co-culture with Toledo (CD20 (human) [4]): 6590 pg/mL
Substance: C2B8-CD828Z

- IFNγ release (ELISA), overnight co-culture with CD19-K562 (CD19 [1]): 21200 pg/mL
- IFNγ release (ELISA), overnight co-culture with Nalm6 (CD19 [1]): 6940 pg/mL
- IFNγ release (ELISA), overnight co-culture with ST486 (CD19 [1]): 745 pg/mL
- IFNγ release (ELISA), overnight co-culture with SU-DHL-4 (CD19 [1]): 2280 pg/mL
- IFNγ release (ELISA), overnight co-culture with Toledo (CD19 [1]): 4570 pg/mL
- IL-2 release (ELISA), overnight co-culture with CD19-K562 (CD19 [1]): 616 pg/mL
- IL-2 release (ELISA), overnight co-culture with Nalm6 (CD19 [1]): 111 pg/mL
- IL-2 release (ELISA), overnight co-culture with ST486 (CD19 [1]): < 16 pg/mL
- IL-2 release (ELISA), overnight co-culture with SU-DHL-4 (CD19 [1]): < 16 pg/mL
- IL-2 release (ELISA), overnight co-culture with Toledo (CD19 [1]): 55 pg/mL
- IFNγ release (ELISA), overnight co-culture with CD20-K562 (CD20 (human) [2]): 43 pg/mL
- IL-2 release (ELISA), overnight co-culture with CD20-K562 (CD20 (human) [2]): < 16 pg/mL
- IFNγ release (ELISA), overnight co-culture with CD19-K562 (CD19 [3]): 31900 pg/mL
- IFNγ release (ELISA), overnight co-culture with Nalm6 (CD19 [3]): 5700 pg/mL
- IFNγ release (ELISA), overnight co-culture with ST486 (CD19 [3]): 3610 pg/mL
- IFNγ release (ELISA), overnight co-culture with SU-DHL-4 (CD19 [3]): 5190 pg/mL
- IFNγ release (ELISA), overnight co-culture with Toledo (CD19 [3]): 6470 pg/mL
- IFNγ release (ELISA), overnight co-culture with CD20-K562 (CD20 (human) [4]): 21 pg/mL
- IFNγ release (ELISA), overnight co-culture with CD19-K562 (CD19 [5]): 13300 pg/mL
- IFNγ release (ELISA), overnight co-culture with Nalm6 (CD19 [5]): 6520 pg/mL
- IFNγ release (ELISA), overnight co-culture with ST486 (CD19 [5]): 1430 pg/mL
- IFNγ release (ELISA), overnight co-culture with CD20-K562 (CD20 (human) [6]): 808 pg/mL
- IFNγ release (ELISA), overnight co-culture with CD19-K562 (CD19 [7]): 13900 pg/mL
- IFNγ release (ELISA), overnight co-culture with CD20-K562 (CD20 (human) [8]): 118 pg/mL
Substance: Hu19-CD828Z

- IFNγ release by Hu1928-2.1.2BB T cells with ST486 CD19-/- cells, human IgG at 0 ug/ml (CD20 (human) [2]): 6490 pg/mL
- IFNγ release by Hu1928-2.1.2BB T cells with ST486 CD19-/- cells, human IgG at 6.2 ug/ml (CD20 (human) [2]): 5840 pg/mL
- IFNγ release by Hu1928-2.1.2BB T cells with ST486 CD19-/- cells, human IgG at 12.5 ug/ml (CD20 (human) [2]): 5590 pg/mL
- IFNγ release by Hu1928-2.1.2BB T cells with ST486 CD19-/- cells, human IgG at 25 ug/ml (CD20 (human) [2]): 5470 pg/mL
- IFNγ release by Hu1928-2.1.2BB T cells with ST486 CD19-/- cells, human IgG at 50 ug/ml (CD20 (human) [2]): 6510 pg/mL
- IFNγ release by Hu1928-2.1.2BB T cells with ST486 CD19-/- cells, human IgG at 100 ug/ml (CD20 (human) [2]): 5920 pg/mL
Substance: Human IgG (antibody)
